Test results: patent US20250136692A1

What was measured:
hPD-1-HIS (human) [1] = target: hPD-1-HIS (human) (UniProt Q15116); experiment: ELISA, plate-coated PD-1 protein, anti-human IgG detection
hPD-1-HIS (human) [2] = target: hPD-1-HIS (human) (UniProt Q15116); experiment: ELISA, plate-coated PD-1 protein, protocol of Example 1

hPD-1-HIS (human), sequence (Q15116 25-167 limits assumed): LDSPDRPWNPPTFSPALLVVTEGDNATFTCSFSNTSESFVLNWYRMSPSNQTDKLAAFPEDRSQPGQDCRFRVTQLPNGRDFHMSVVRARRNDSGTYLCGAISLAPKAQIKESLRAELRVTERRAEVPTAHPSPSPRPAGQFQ

Binder | hPD-1-HIS Binding (OD 450) (hPD-1-HIS (human) [1]) | hPD-1-HIS Binding (OD 450) (hPD-1-HIS (human) [2])
4G9-1 (antibody, human IgG1, kappa, V domains shown) VH: QVQLVQSGAEVKKPGASVKVSCKASGYTFTTYGINWVRQATGQGLEWMGWINTYSGVPGYAQKFQGRVTMTLNTSISTAYMELSSLRSEDTAVYYCARGGRGIAYWGQGTLVTVSS VL: DIQLTQSPSSLSASVGDRVTITCRASQGISNSLAWFQQKPGKVPKRLIYAASNLQSGVPSRFSGSGSGTEFTLTISSLQPEDFATYYCQQSYSTPYTFGQGTKLEIKR | 0.874 OD 450 | –
4G9-3 (antibody, human IgG1, kappa, V domains shown) VH: QVQLVQSGAEVKKPGASVKVSCKASGYTFTTYGINWVRQATGQGLEWMGWINTYSGVPGYAQKFQGRVTMTLNTSISTAYMELSSLRSEDTAVYYCARGGRESAYWGQGTLVTVSS VL: EIVMTQSPATLSVSPGERATLSCRASQSIGTSLHWYQQKPGGAPRLLIKYASESITGIPARFSGSGSGTEFTLTISSLQSEDFAVYYCQQSNSWPYTFGQGTKLEIKR | 0.451 OD 450 | –
4G9-5 (antibody, human IgG1, kappa, V domains shown) VH: QVQLVQSGAEVKKPGASVKVSCKASGYTFTTYGINWVRQATGQGLEWMGWINTYSGVPGYAQKFQGRVTMTLNTSISTAYMELSSLRSEDTAVYYCARGVRVFYHWGQGTLVTVSS VL: EIVMTQSPATLSVSPGERATLSCRASQSIGTSLHWYQQKPGGAPRLLIKYASESITGIPARFSGSGSGTEFTLTISSLQSEDFAVYYCQQSNSWPYTFGQGTKLEIKR | 0.383 OD 450 | –
4G9-8 (antibody, human IgG1, kappa, V domains shown) VH: QVQLVQSGAEVKKPGASVKVSCKASGYTFTTYGINWVRQATGQGLEWMGWINTYSGVPGYAQKFQGRVTMTLNTSISTAYMELSSLRSEDTAVYYCARVERGDAYWGQGTLVTVSS VL: EIVLTQSPSSLSASVGDRVTITCRASQDIRRDFGWYQQKPGLAPELLIYDASRLRSGVPSRFSGSGSGTLFTFTITNLQPEDFATYYCLQDYDFPRTFGQGTKVDIKR | 0.346 OD 450 | –
4G9-10 (antibody, human IgG1, kappa, V domains shown) VH: QVQLVQSGAEVKKPGASVKVSCKASGYTFTTYGINWVRQATGQGLEWMGWINTYSGVPGYAQKFQGRVTMTLNTSISTAYMELSSLRSEDTAVYYCARGSKGDAYWGQGTLVTVSS VL: DIVMTQSPSSLSASVGDRVTITCRASQSISTWLAWFQQKPGKAPKLLIYKASSLKSGVPSRFSGSGSGTEFTLTISSLQPDDFATYYCQQSYSTPWTFGQGTKLEIKR | 0.287 OD 450 | –
4G9-9 (antibody, human IgG1, kappa, V domains shown) VH: QVQLVQSGAEVKKPGASVKVSCKASGYTFTTYGINWVRQATGQGLKWMGWINTYSGVPGYAQKFQGRVTMTLNTSISTAYMELSSLRSEDTAVYYCARGVHGVSYWGQGTLVTVSS VL: EIVMTQSPATLSVSPGERATLSCRASQSIGTSLHWYQQKPGGAPRLLIKYASESITGIPARFSGSGSGTEFTLTISSLQSEDFAVYYCQQSNSWPYTFGQGTKLEIKR | 0.31 OD 450 | –
5C2-1 (antibody, human IgG1, kappa, V domains shown) VH: QVQLVQSGAEVKKPGASVKVSCKASGYTFNSYWMHWVRQAPGQGLEWMGRIHPRGIHTNYNQKFKGRVTLTVDTSTSTAYMELSSLRSEDTAVYYCAPSSSYAWAFAHWGQGTLVTVSS VL: DIQMTQSPSSLSASVGDRVTITCRASQDVSTALAWYQQKPGKAPKLLIYWASTRHSGVPDRFSGSGSGTDFTLTISSLQPEDFATYYCQQHYRSPGTFGGGTKVEIKR | – | 0.791 OD 450
5C2-8 (antibody, human IgG1, kappa, V domains shown) VH: QVQLVQSGAEVKKPGASVKVSCKASGYTFNSYLMHWVRQAPGMGLEWMGRIRPNYSDTNYNQKFKGRVTLTVDTSTSTAYMELSSLRSEDTAVYYCAPYGNNASGFSYWGQGTLVTVSS VL: DIQMTQSPSSLSASVGDRVTITCRASQDVSTALAWYQQKPGKAPKLLIYWASTRHSGVPDRFSGSGSGTDFTLTISSLQPEDFATYYCQQHYRSPWTFGGGTKVEIKR | – | 0.262 OD 450
5C2-9 (antibody, human IgG1, kappa, V domains shown) VH: QVQLVQSGAEVKKPGASVKVSCKASGQTFTNYLMHWVRQAPGQGLEWMGRIPLSDRDTNYNQKFKGRVTLTVDTSTSTAYMELSSLRSEDTAVYYCAPYGRSASGFSSWGQGTLVTVSS VL: DIQMTQSPSSLSASVGDRVTITCRASQDVSTALAWYQQKPGKAPKLLIYWASTRHSGVPDRFSGSGSGTDFTLTISSLQPEDFATYYCQQGSSTPLTFGGGTKVEIKR | – | 0.255 OD 450
5C2-7 (antibody, human IgG1, kappa, V domains shown) VH: QVQLVQSGAEVKKPGASVKVSCKASGYTFTSYWMHWVRQAPGMGLEWMGRIHPIYRDTNYNQKFKGRVTLTVDTSTSTAYMELSSLRSEDTAVYYCAPYVNYGDGFAYWGQGTLVTVSS VL: DIQMTQSPSTLSASVGDRVTITCRASQDVSTALAWYQQKPGKAPKLLIYWASTRHIGVPDRFSGSGSGTDFTLTISSLQPEDFATYYCHQDYITPRTFGGGTKVEIKR | – | 0.264 OD 450
5C2-4 (antibody, human IgG1, kappa, V domains shown) VH: QVQLVQSGAEVKKPGASVKVSCKASGYTFTRYWMHWVRQAPGQGLEWMGRIHPTDSVTNYNQKFKGRVTLTVDTSTSTAYMELSSLRSEDTAVYYCAPDVNYARAFAHWGQGTLVTVSS VL: DIQMTQSPSSLSASVGDRVTITCRASQDVSTALAWYQQKPGKAPKLLIYWASTRHSGVPDRFSGSGSGTDFTLTISSLQPEDFATYYCQQHYGSPWTFGGGTKVEIKR | – | 0.312 OD 450
5C2-5 (antibody, human IgG1, kappa, V domains shown) VH: QVQLVQSGAEVKKPGASVKVSCKASGYTFGIYWMHWVRQAPGQGLEWMGRILPSNGYTNYNQKFKGRVTLTVDTSTSTAYMELSSLRSEDTAVYYCAPYGIYTRDFSHWGQGTLVTVSS VL: DIQMTQSPSSLSASVGDRVTITCRASQDVSTALAWYQQKPGKAPKLLIYWASTRHSGVPDRFSGSGSGTDFTLTISSLQPEDFATYYCQQRDTTPRTFGGGTKVEIKR | – | 0.286 OD 450
5C2-2 (antibody, human IgG1, kappa, V domains shown) VH: QVQLVQSGAEVKKPGASVKVSCKASGQTFTSYRMHWVRQAPGQGLEWMGRILPIRSDTNYNQKFKGRVTLTVDTSTSTAYMELSSLRSEDTAVYYCARDAGYGSLFAAWGQGTLVTVSS VL: DIQMTQSPSSLSASVGDRVTITCRASQDVSTALAWYQQKPGKAPKLLIYWASTRHSGVPDRFSGSGSGTDFTLTISSLQPEDFATYYCQQHDSSPGTFGGGTKVEIKR | – | 0.395 OD 450
5C2-3 (antibody, human IgG1, kappa, V domains shown) VH: QVQLVQSGAEVKKPGASVKVSCKASGYTFTSYWMHWVRQAPGQGLEWMGRIHPSDSDTNYNQKFKGRVTLTVDTSTSTAYMELSSLRSEDTAVYYCAPKGNYVVRFAYWGQGTLVTVSS VL: DIVMTQSPSSLSASVGDRVTITCRASQGIRNDLGWYQQKPGKAPKLLIYAASSLQSGVPSRFSGSGSDTDFTLTISSLQPEDFATYYCLQDYNYPWTFGQGTKVDIKR | – | 0.345 OD 450
5C2-6 (antibody, human IgG1, kappa, V domains shown) VH: QVQLVQSGAEVKKPGASVKVSCKASGYTFTSYWMHWVRQAPGQGLEWMGRIHPSDSDTNYNQKFKGRVTLTVDTSTSTAYMELSSLRSEDTAVYYCAPYVDLESGFAYWGQGTLVTVSS VL: DIAMTQTPSSLSASIGDRVTIACRASQGISSALAWYQQKPGRTPKLLIFDASTLQSGVPSRFSGSGSGTDFTLTISSLQPEDFATYYCQQFNTYSSVTFGQGTRLEIKR | – | 0.267 OD 450
